Measurements: the RNAGym collection of RNA variant scans (doi:10.1021/acssynbio.7b00057)

B1: Pistol ribozyme (parent)
chain: GGGUCGUUGUUCCAUAAUCGCGUGGAUAUGGCACGCAAGUUUCUACCGGGCACCGUAAAUGUCCGACUGGAGCCGUUCGGGCGGCUAUAAACAGACCUCAGGCCCGAAGCGUGGCGGCACCUGCCGCCGGUGGUAAAAAAGAUCGGAAGAGCACACGUCU

Variants of: B1
Test: aptazyme ON/OFF ratio, guanine; higher = stronger switching; co-transcriptional cleavage with and without guanine

Point of comparison: U7G U8G G9C U11G C12G C13A, “aptazyme ON/OFF ratio” value 1.17. Against it:
- U7G U8G G9C U11G C12U C13A — higher, 1.3
- U7G U8G G9C U11G C12U C13U — higher, 1.26
- U7G U8G G9C U11A C12G — the same, 1.17
- U7G U8G G9C U11A C12A — higher, 1.31
- U7G U8G G9C U11A C12U — higher, 1.53
- U7G U8G G9C U11C C12A C13G — lower, 1.13
- U7G U8G G9C U11C C12A C13U — higher, 4.45
- U7G U8G G9C U11C C12A C13A — higher, 1.37
- U7G U8G G9U U10A U11C C12U C13A — lower, 1.16
- U7G U8G G9U U10A U11C C12U C13U — higher, 1.29
- U7G U8G G9U U10A U11C C12U C13G — lower, 1.08
- U7G U8G G9C U10G U11C C12U C13A — lower, 1.15
- U7G U8G G9C U10G U11C C12U C13U — lower, 1.11
- U7G U8G G9C U10G U11C C12U C13G — higher, 1.33
- U7G U8G G9C U10G U11G C13A — higher, 1.18
- U7G U8G G9C U10G U11G C13U — higher, 1.28
- U7G U8G G9C U10G U11G C13G — the same, 1.17
- U7G U8G G9U U10C U11G C12U C13A — higher, 1.23
- U7G U8G G9U U10C U11G C12U C13G — higher, 1.24
- U7G U8G G9U U10C U11G C12U C13U — higher, 1.4
- U7G U8G G9U U10A U11G C12A C13A — lower, 1.1
- U7G U8G G9U U10A U11G C12A C13U — lower, 1.11
- U7G U8G G9U U10A U11G C12A C13G — lower, 1.04
- U7G U8G G9U U10G U11C C12G C13G — lower, 1.05
- U7G U8G G9U U10G U11C C12G C13U — lower, 1.14
- U7G U8G G9U U10G U11C C12G C13A — lower, 1.1
- U7G U8G G9U U10A U11C C12A C13A — lower, 1.1
- U7G U8G G9U U10A U11C C12A C13U — the same, 1.17
- U7G U8G G9U U10A U11C C12A C13G — lower, 1.08
- U7G U8G G9U U10G U11A C12A — lower, 1.13
- U7G U8G G9U U10G U11A C12G — lower, 1.16
- U7G U8G G9U U10G U11A C12U — higher, 1.27
- U7G U8G G9U U10A C12A C13U — lower, 1.15
- U7G U8G G9U U10A C12A C13A — higher, 1.21
- U7G U8G G9U U10A C12A C13G — lower, 1.14
- U7G U8G G9U U10A C12U — higher, 1.29
- U7G U8G G9U U10A C12G — higher, 1.21
- U7G U8G G9U U10A C12A — higher, 1.28
- U7G U8G G9C U11G C12G C13U — higher, 1.18
- U7G U8G G9C U11G C12G C13G — higher, 1.24
- U7G U8G G9C U10C U11G — higher, 1.35
- U7G U8G G9U C12U — higher, 1.66
- U7G U8G G9U C12G — higher, 1.18
- U7G U8G G9U C12A — higher, 1.56
- U7G U8G G9U U10G U11C C12A C13G — lower, 1.11
- U7G U8G G9U U10G U11C C12A C13U — lower, 1.1
- U7G U8G G9U U10G U11C C12A C13A — lower, 1.1
- U7G U8G G9U U10C U11C C13U — higher, 1.37
- U7G U8G G9U U10C U11C C13A — higher, 1.28
- U7G U8G G9U U10C U11C C13G — higher, 1.21
- U7G U8G G9C U10C U11G C12U C13U — higher, 1.22
- U7G U8G G9C U10C U11G C12U C13A — higher, 1.25
- U7G U8G G9C U10C U11G C12U C13G — higher, 1.22
- U7G U8G G9C U11G C12A C13U — higher, 1.3
- U7G U8G G9C U11G C12A C13G — higher, 1.23
- U7G U8G G9C U11G C12A C13A — lower, 1.14
- U7G U8G G9U U10C C12A C13A — higher, 1.31
- U7G U8G G9U U10C C12A C13G — higher, 1.29
- U7G U8G G9U U10C C12A C13U — higher, 1.4
- U7G U8G G9U U10C U11C C12A C13A — higher, 1.33
- U7G U8G G9U U10C U11C C12A C13G — higher, 1.3
- U7G U8G G9U U10C U11C C12A C13U — higher, 1.53
- U7G U8G G9C U11G C12A — higher, 1.73
- U7G U8G G9C U11G C12U — higher, 1.31
- U7G U8G G9C U11G C12G — higher, 1.6
- U7G U8G G9U U10G C13A — higher, 1.27
- U7G U8G G9U U10G C13U — higher, 1.36
- U7G U8G G9U U10G C13G — higher, 1.21
- U7G U8G G9U U10G C12G C13U — higher, 1.35
- U7G U8G G9U U10G C12G C13A — lower, 1.13
- U7G U8G G9U U10G C12G C13G — lower, 1.15
- U7G U8G G9C U10G U11A C12G C13A — lower, 1.06
- U7G U8G G9C U10G U11A C12G C13G — lower, 1.12
- U7G U8G G9C U10G U11A C12G C13U — lower, 1.16
- U7G U8G G9U U10A — higher, 3.21
- U7G U8G G9U U10G — higher, 1.42
- U7G U8G G9U U10C — higher, 1.51
- U7G U8G G9C U10G C12A — lower, 1.14
- U7G U8G G9C U10G C12U — the same, 1.17
- U7G U8G G9C U10G C12G — higher, 1.21
- U7G U8G G9U U10C C12U C13G — higher, 1.36
- U7G U8G G9U U10C C12U C13U — higher, 1.35
- U7G U8G G9U U10C C12U C13A — higher, 1.22
- U7G U8G G9U U10C U11G C12A C13U — higher, 1.28
- U7G U8G G9U U10C U11G C12A C13A — lower, 1.12
- U7G U8G G9U U10C U11G C12A C13G — lower, 1.15
- U7G U8G G9C U10G U11C C13G — lower, 1.08
- U7G U8G G9C U10G U11C C13U — lower, 1.05
- U7G U8G G9C U10G U11C C13A — lower, 1.09
- U7G U8G G9U U10C U11C C12U — higher, 1.53
- U7G U8G G9U U10C U11C C12G — higher, 1.46
- U7G U8G G9U U10C U11C C12A — higher, 1.46
- U7G U8G G9C U11A C13A — lower, 1.15
- U7G U8G G9C U11A C13G — lower, 1.04
- U7G U8G G9C U11A C13U — higher, 1.36
- U7G U8G G9C U10G U11A C13A — lower, 1.1
- U7G U8G G9C U10G U11A C13G — lower, 1.05
- U7G U8G G9C U10G U11A C13U — lower, 1.12
- U7G U8G G9U U10A U11A C12G C13G — lower, 1.11
- U7G U8G G9U U10A U11A C12G C13A — higher, 1.2
- U7G U8G G9U U10A U11A C12G C13U — lower, 1.14
- U7G U8G G9U U10A U11A C12A C13G — lower, 1.13
- U7G U8G G9U U10A U11A C12A C13U — higher, 1.29
- U7G U8G G9U U10A U11A C12A C13A — lower, 1.02
- U7G U8G G9C U10G U11G C12A C13A — lower, 1.09
- U7G U8G G9C U10G U11G C12A C13U — lower, 1.09
- U7G U8G G9C U10G U11G C12A C13G — lower, 1.15
- U7G U8G G9U U10A U11C C12G C13U — lower, 1.14
- U7G U8G G9U U10A U11C C12G C13A — lower, 1.08
- U7G U8G G9U U10A U11C C12G C13G — lower, 1.09
- U7G U8G G9U C12G C13A — higher, 1.3
- U7G U8G G9U C12G C13U — higher, 1.27
- U7G U8G G9U C12G C13G — higher, 1.31
- U7G U8G G9U U10G U11G C12A — lower, 1.13
- U7G U8G G9U U10G U11G C12G — lower, 1.16
- U7G U8G G9U U10A C13A — lower, 1.13
- U7G U8G G9U U10A C13G — lower, 1.1
- U7G U8G G9U U10A C13U — higher, 1.31
- U7G U8G G9U U10C U11A C12A C13A — higher, 1.3
- U7G U8G G9U U10C U11A C12A C13U — higher, 1.33
- U7G U8G G9U U10C U11A C12A C13G — higher, 1.24
- U7G U8G G9U U10C U11A C13U — higher, 1.23
- U7G U8G G9U U10C U11A C13A — higher, 1.38
- U7G U8G G9U U10C U11A C13G — higher, 1.23
- U7G U8G G9U U10C U11A C12U C13A — higher, 1.35
- U7G U8G G9U U10C U11A C12U C13U — higher, 1.36
- U7G U8G G9U U10C U11A C12U C13G — higher, 1.37
- U7G U8G G9C U10G U11G C12G — lower, 1.15
- U7G U8G G9C U10G U11G C12U — higher, 1.19
- U7G U8G G9C U10G U11G C12A — lower, 1.11
- U7G U8G G9U U10C C13A — higher, 1.43
- U7G U8G G9U U10C C13U — higher, 1.28
- U7G U8G G9U U10C C13G — higher, 1.31
- U7G U8G G9C U10G C13G — higher, 1.28
- U7G U8G G9C U10G C13A — higher, 1.31
- U7G U8G G9C U10G C13U — higher, 1.26
- U7G U8G G9C U11C C13G — higher, 1.4
- U7G U8G G9C U11C C13U — higher, 1.33
- U7G U8G G9C U11C C13A — higher, 1.4
- U7G U8G G9U U10C U11C — higher, 2.05
- U7G U8G G9U U10C U11A — higher, 1.47
- U7G U8G G9U U10C U11G — higher, 1.28
- U7G U8G G9C U10G U11G C12U C13G — lower, 1.05
- U7G U8G G9C U10G U11G C12U C13A — lower, 1.14
- U7G U8G G9C U10G U11G C12U C13U — the same, 1.17
- U7G U8G G9C U10C U11C C12G C13U — lower, 1.04
- U7G U8G G9U — higher, 1.51
- U7G U8G G9U U10A U11G C13U — lower, 1.12
- U7G U8G G9U U10A U11G C13G — lower, 1.13
- U7G U8G G9U U10A U11G C13A — lower, 1.07
- U7G U8G G9U U10C U11A C12G C13A — lower, 1.14
- U7G U8G G9U U10C U11A C12G C13U — higher, 1.45
- U7G U8G G9U U10C U11A C12G C13G — lower, 1.15
- U7G U8G G9U U10G C12U C13A — the same, 1.17
- U7G U8G G9U U10G C12U C13G — higher, 1.21
- U7G U8G G9U U10G C12U C13U — higher, 1.2
- U7G U8G G9U U10G U11A C12U C13A — lower, 1.1
- U7G U8G G9U U10G U11A C12U C13U — higher, 1.2
- U7G U8G G9U U10G U11A C12U C13G — higher, 1.19
- U7G U8G G9C U10G — higher, 1.74
- U7G U8G G9U U10C U11G C12G C13A — lower, 1.16
- U7G U8G G9U U10C U11G C12G C13U — higher, 1.26
- U7G U8G G9U U10C U11G C12G C13G — lower, 1.15
- U7G U8G G9U U10C U11C C12U C13U — higher, 1.37
- U7G U8G G9U U10C U11C C12U C13A — higher, 1.18
- U7G U8G G9U U10C U11C C12U C13G — higher, 1.41
